Reference: article PMC8809517, “Cofactor-independent RNA editing by a synthetic S-type PPR protein”
Where a chain is given by its changes, count along the chain named.

T1: GFP-9S library array, motif 4 ND N98A;D124Q (synthetic construct, N98A;D124Q)
T1 chain: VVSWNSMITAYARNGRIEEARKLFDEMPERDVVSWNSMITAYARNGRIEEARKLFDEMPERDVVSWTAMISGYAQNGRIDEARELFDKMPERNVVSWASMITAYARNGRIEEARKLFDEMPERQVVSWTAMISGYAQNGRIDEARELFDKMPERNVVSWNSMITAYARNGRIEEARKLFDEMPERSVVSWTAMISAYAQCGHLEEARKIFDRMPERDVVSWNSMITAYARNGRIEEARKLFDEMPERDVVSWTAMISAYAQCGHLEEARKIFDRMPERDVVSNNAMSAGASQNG

T2: GFP-9S library array, motif 4 ND N98T;D124Y (synthetic construct, N98T;D124Y)
T2 chain: T1 chain with A98T, Q124Y

T3: GFP-9S library array, motif 4 ND N98G;D124F (synthetic construct, N98G;D124F)
T3 chain: T1 chain with A98G, Q124F

T4: GFP-9S library array, motif 4 ND N98M;D124S (synthetic construct, N98M;D124S)
T4 chain: T1 chain with A98M, Q124S

T5: GFP-9S library array, motif 4 ND N98L;D124T (synthetic construct, N98L;D124T)
T5 chain: T1 chain with A98L, Q124T


Columns and labels:
Test in all cases: high-throughput RNA pulldown from lysate on Ni-NTA beads; HRP: 50 mM Tris pH 8, 150 mM NaCl, 1 mM beta-mercaptoethanol, 50 ug/ml BSA, 3 ug/ml yeast RNA, 0.5% heparin; ITC and FP: Tris pH 8, 200 mM KCl, 5% glycerol; MST: 50 mM Tris pH 8, 200 mM NaCl, 1 mM DTT, BSA, heparin, 0.05% Tween 20
Conditions in all cases: tags: N-terminal His-eGFP
[1] = biological target: T1, GFP-9S library array, motif 4 ND …
[2] = biological target: T2, GFP-9S library array, motif 4 ND …
[3] = biological target: T3, GFP-9S library array, motif 4 ND …
[4] = biological target: T4, GFP-9S library array, motif 4 ND …
[5] = biological target: T5, GFP-9S library array, motif 4 ND …

Row | Binder | Kd ([1]; label: 5' Cy5) | Kd ([2]; label: 5' Cy5) | Kd ([3]; label: 5' Cy5) | Kd ([4]; label: 5' Cy5) | Kd ([5]; label: 5' Cy5) | Kd ([1]; label: 5' IRDye 800CW) | Kd ([2]; label: 5' IRDye 800CW) | Kd ([3]; label: 5' IRDye 800CW) | Kd ([4]; label: 5' IRDye 800CW) | Kd ([5]; label: 5' IRDye 800CW)
1 | AUUAGACGUGA (ssRNA) [Cy5-rpoA-G] | 174 nM | 105 nM | 95.6 nM | 73.1 nM | 206 nM | – | – | – | – | –
2 | AUUAUACGUGA (ssRNA) [IR-rpoA-U] | – | – | – | – | – | 522 nM | 147 nM | 119 nM | 48.4 nM | 19 nM
3 | AUUAAACGUGA (ssRNA) [IR-rpoA-A] | – | – | – | – | – | 306 nM | 90.9 nM | 218 nM | 65.9 nM | 171 nM
4 | AUUACACGUGA (ssRNA) [Cy5-rpoA] | 249 nM | 145 nM | 69.1 nM | 50.4 nM | 103 nM | – | – | – | – | –
